Results: article PMC5534098, “Modulation of chromatin structure by the FACT histone chaperone complex regulates HIV-1 integration” (Retrovirology, 2017)

Target: T1, FACT (FAcilitates Chromatin Transcription) complex, recombinant purified (human | , UniProt Q9Y5B9 1-1047; Q08945 1-709)
T1 construct: also called FACT complex; source: recombinant, purified as reported before [17, 18]
Assay: pull-down
Settings: both partners purified

T1 sequence (Q9Y5B9 whole entry, chain 1 of 2): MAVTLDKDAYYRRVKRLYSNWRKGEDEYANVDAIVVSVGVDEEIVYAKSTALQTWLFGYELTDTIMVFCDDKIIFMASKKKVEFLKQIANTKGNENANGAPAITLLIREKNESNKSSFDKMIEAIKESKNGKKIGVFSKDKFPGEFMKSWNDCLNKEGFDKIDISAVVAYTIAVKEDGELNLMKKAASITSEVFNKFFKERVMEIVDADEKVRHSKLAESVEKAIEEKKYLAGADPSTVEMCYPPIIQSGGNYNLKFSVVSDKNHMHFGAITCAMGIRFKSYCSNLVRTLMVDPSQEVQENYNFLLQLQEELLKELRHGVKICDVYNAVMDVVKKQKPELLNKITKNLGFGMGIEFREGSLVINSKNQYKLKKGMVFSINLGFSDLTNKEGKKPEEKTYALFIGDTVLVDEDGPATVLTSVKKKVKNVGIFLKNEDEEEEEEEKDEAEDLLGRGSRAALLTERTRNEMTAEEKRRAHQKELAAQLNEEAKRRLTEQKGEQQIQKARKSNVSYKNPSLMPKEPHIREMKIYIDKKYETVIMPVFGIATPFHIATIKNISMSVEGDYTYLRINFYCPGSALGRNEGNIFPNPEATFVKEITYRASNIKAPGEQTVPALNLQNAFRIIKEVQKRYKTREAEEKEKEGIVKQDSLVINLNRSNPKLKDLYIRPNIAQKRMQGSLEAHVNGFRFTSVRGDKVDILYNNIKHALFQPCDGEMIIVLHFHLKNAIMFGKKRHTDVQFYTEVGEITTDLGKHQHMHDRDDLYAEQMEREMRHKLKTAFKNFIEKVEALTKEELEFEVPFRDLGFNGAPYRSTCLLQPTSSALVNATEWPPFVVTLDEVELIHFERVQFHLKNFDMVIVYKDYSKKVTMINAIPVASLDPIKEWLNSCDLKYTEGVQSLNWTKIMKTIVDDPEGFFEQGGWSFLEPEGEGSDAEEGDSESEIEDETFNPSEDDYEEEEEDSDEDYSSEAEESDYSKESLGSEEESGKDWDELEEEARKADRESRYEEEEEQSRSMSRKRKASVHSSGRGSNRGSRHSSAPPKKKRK
T1 sequence (Q08945 whole entry, chain 2 of 2): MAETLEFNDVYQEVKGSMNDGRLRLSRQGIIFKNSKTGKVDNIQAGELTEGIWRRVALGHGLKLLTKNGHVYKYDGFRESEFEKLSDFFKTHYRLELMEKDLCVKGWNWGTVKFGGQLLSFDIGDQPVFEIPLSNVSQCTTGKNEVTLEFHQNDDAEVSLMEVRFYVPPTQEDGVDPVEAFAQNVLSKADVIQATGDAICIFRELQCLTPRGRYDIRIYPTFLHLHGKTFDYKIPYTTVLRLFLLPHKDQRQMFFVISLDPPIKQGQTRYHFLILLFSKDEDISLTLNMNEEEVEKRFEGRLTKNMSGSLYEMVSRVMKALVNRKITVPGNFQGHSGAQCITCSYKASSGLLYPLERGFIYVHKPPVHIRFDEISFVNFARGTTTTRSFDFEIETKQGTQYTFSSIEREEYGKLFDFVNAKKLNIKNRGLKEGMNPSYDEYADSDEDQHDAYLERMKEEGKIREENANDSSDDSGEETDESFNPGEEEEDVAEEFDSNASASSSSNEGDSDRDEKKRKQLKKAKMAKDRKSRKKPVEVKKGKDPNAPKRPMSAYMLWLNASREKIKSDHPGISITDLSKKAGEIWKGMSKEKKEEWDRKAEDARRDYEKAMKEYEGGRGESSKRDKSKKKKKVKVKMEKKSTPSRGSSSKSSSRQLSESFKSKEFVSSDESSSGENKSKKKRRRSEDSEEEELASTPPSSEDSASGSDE

binding result: binds
B1: LEDGF/p75-GST (natural protein)
chain: not shown
